B1: Wnt5a: recombinant Wnt5a protein added to NK-92MI cells (protein, UniProt P41221 62-380, looked up)
Protein Wnt-5a: IIGAQPLCSQLAGLSQGQKKLCHLYQDHMQYIGEGAKTGIKECQYQFRHRRWNCSTVDNTSVFGRVMQIGSRETAFTYAVSAAGVVNAMSRACREGELSTCGCSRAARPKDLPRDWLWGGCGDNIDYGYRFAKEFVDARERERIHAKGSYESARILMNLHNNEAGRRTVYNLADVACKCHGVSGSCSLKTCWLQLADFRKVGDALKEKYDSAAAMRLNSRGKLVQVNSRFNSPTTQDLVYIDPSPDYCVRNESTGSLGTQGRLCNKTSEGMDGCELMCCGRGYDQFKTVQTERCHCKFHWCCYVKCKKCTEIVDQFVCK
B2: DKK2: recombinant DKK2 protein added to NK-92MI cells (protein)
chain: KLNSIKSSLGGETPGQAANRSAGMYQGLAFGGSKKGKNLGQAYPCSSDKECEVGRYCHSPHQGSSACMVCRRKKKRCHRDGMCCPSTRCNNGICIPVTESILTPHIPALDGTRHRDRNHGHYSNHDLGWQNLGRPHTKMSHIKGHEGDPCLRSSDCIEGFCCARHFWTKICKPVLHQGEVCTKQRKKGSHGLEIFQRCDCAKGLSCKVWKDATYSSKARLHVCQKI

Test system: NK-92MI cells
Experiment: Granzyme B expression in human NK cell line NK92 by flow cytometry
Format: cell-based
Conditions: recombinant proteins 200 ng/ml, 24 hours
Procedure: Recombinant Wnt5a and DKK2 (200 ng/ml) were added to NK-92MI cells for 24 hours and Granzyme B contents were analyzed by flow cytometry.
Human NK cell line NK-92 and primary mouse NK cells from spleens and MC38-grafted tumors were tested for their expression of Granzyme and cytotoxic activity in the presence or absence of recombinant proteins of DKK2, Wnt3a, Wnt5a and DKK1, and in the presence or absence of Wnt inhibitors (including LGK-974) and GSK inhibitors (including CHIR 99021). In this manner, the regulation of NK cell activation by DKK2 and Wnt was assessed.

Molecule | Granzyme B expression
B1 | inhibited Granzyme B expression
B2 | inhibited Granzyme B expression
